Results from US20250161441A1, “MEDICINE COMPRISING COMBINATION OF ANTI-MUTANT-CALR ANTIBODY AND ANOTHER DRUG” (JUNTENDO EDUCATIONAL FOUNDATION, priority 2022, published 2025).
Changes are numbered by the printed parent chain.

B1: C6: rat monoclonal anti-mutant CALR antibody from hybridoma clone C6, VH SEQ ID NO: 8, VL SEQ ID NO: 9 (antibody, listed as Rattus norvegicus, V domains shown)
VH: QVQLQQSGAELVKPGSSVKISCKASGYTFTSYFVHWIKQQPGDGLEWIGWIYPGDGDTEYNHKFNGKSTLTADRSSSTAYMQLSSLTSEDSAVYFCARGNYYDGREVMDAWGQGASVTVSS
VL: DVVLTQTPPTLSATIGQSVSISCRSSQSLLDSDGETYLNWLLQRPGQSPQLLIYSVSNLESGVPNRFSGSGSETDFTLKISGMEAEDLGVYYCMQATHGPYTFGAGTKLELK
B2: G1: rat monoclonal anti-mutant CALR antibody from hybridoma clone G1, VH SEQ ID NO: 10, VL SEQ ID NO: 11 (antibody, listed as Rattus norvegicus, V domains shown)
VH: B1 VH with H62Q, S68A
VL: B1 VL with S48C, M83V, A96G
B3: B3: rat monoclonal anti-mutant CALR antibody from hybridoma clone B3, VH SEQ ID NO: 6, VL SEQ ID NO: 7 (antibody, listed as Rattus norvegicus, V domains shown)
VH: QVQLQQSGAELVKPGSSVKISCKASGYTFTRNFIHWIKQQPGNGLEWIGWIFPGDGDTEYNQKFNGKATLTADKSSSTAYMQLSSLTSEDSAVYFCARGNYNYEYFDYWGQGVMVTVSS
VL: DIQMTQSPASLSASLGETVSIECLASEDIYSYLAWYQQKPGKSPQLLIFAANRLQDGVPSRFSGSGSGTQFSLKISGMQPEDEGDYFCLQGSKFPYTFGPGTKLELN

System: Del 52 type or Ins 5 type mutant CALR protein
Test: Verification of recognition of mutant CALR proteins (SDS-PAGE / immunoblot of culture supernatants)
Format: binding, human
Conditions: culture supernatants of UT-7/TPO cells expressing FLAG-tagged Del 52 or Ins 5 mutant CALR
Experimental: UT-7/TPO cells expressing a Del 52 type or Ins 5 type mutant CALR having a FLAG-tag inserted downstream of the signal sequence at the N-terminus were cultured, and culture supernatants containing the secreted mutant CALR proteins were prepared by centrifugation (1,600 g×5 mins, 4° C.). The culture supernatants were heat-treated in the presence of SDS and a reducing agent, then resolved on a gel by SDS polyacrylamide electrophoresis, electrically transferred on a polyvinylidene difluoride (PVDF) membrane, and reacted with a TBS-T solution containing 5% skim milk at room temperature for 1 hour, followed by reaction with a 5% BSA/TBS-T solution containing a rat clone B3, C6, or G1 antibody or mouse anti-[…] tag antibody (FUJIFILM Wako Pure Chemical Corporation) at 4° C. overnight. After washing with a TBS-T solution, the reaction products were each reacted with a 5% skim milk/TBS-T solution containing a peroxidase-labeled goat anti-rat IgG antibody (Jackson Immuno Research Inc.) or a peroxidase-labeled goat anti-mouse IgG antibody (Jackson Immuno Research Inc.) at room temperature for 1 hour. After washing with a TBS-T solution, the PVDF membranes were reacted with a peroxidase luminescence reagent. The resulting signals were detected using a FUSION image pickup apparatus.

Molecule | Recognition of full-length and cleaved mutant CALR proteins
B1 | recognize the full-length and cleaved mutant CALR proteins
B2 | recognize the full-length and cleaved mutant CALR proteins
B3 | recognize the full-length and cleaved mutant CALR proteins
